T1: PUF4 RNA-binding domain (Saccharomyces cerevisiae, UniProt P25339 537-888)
T1 sequence: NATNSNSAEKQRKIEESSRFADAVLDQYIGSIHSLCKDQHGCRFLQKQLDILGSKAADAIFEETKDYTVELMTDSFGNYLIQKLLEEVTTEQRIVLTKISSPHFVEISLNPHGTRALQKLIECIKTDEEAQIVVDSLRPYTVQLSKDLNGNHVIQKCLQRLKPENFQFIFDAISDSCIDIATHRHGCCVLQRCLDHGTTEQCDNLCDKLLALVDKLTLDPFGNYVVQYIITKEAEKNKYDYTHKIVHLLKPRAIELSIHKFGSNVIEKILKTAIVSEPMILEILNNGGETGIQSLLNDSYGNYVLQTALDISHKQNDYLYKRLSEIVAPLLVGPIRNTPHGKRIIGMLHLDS


These binders were tested against T1, PUF4 RNA-binding domain (assay: Mg; RNA-MaP; 20 mM Na-HEPES pH 7.4, 30 mM KOAc, 0.75 mM MgCl2, 0.1% Tween-20, 5% glycerol, 0.1 mg/mL BSA, 2 mM DTT; 25 C; 0.0125-409.6 nM protein). Conditions: tags: N-His6-TEV cleaved; C-SNAP kept, Cy3B-labelled; label: tethered on chip by stalled RNA polymerase.

Binder | Kd [nM]
UCUCUUUAUGUAUUAUCUCUU (ssRNA) [Ib_S1_P4E.1_K4.1_C4.1_H4.1_[G2A]_[A4G]_A4.1_F4.1_T4.1] | 36
UCUCUUAUUGUAUAUACGUCUCUU (ssRNA) [Id_ii_S1_P3E.2_K3.1_C3.2_[C-2A]_H3.1_A3.1_F3.1_T3.2_[T9C]_[A10G]] | 26.9
UCUCUUCCUGUAUAUACUUCUCUU (ssRNA) [Id_ii_S1_P3E.2_K3.1_C3.2_[T-1C]_H3.1_A3.1_F3.1_T3.2_[T9C]_[A10T]] | 6.95
UCUCUUCGUGUAUAUAGGUCUCUU (ssRNA) [Id_ii_S1_P3E.2_K3.1_C3.2_[T-1G]_H3.1_A3.1_F3.1_T3.2_[T9G]_[A10G]] | 9.62
UCUCUUCGUGUAUAUAUAUCUCUU (ssRNA) [Id_ii_S1_P3E.2_K3.1_C3.2_[T-1G]_H3.1_A3.1_F3.1_T3.2] | 5.37
UCUCUUUCUCUAUUAUCUCUU (ssRNA) [Ib_S1_P4E.1_K4.1_C4.1_H4.1_[G2C]_[A4C]_A4.1_F4.1_T4.1] | > 2300
UCUCUUUUUGUAUAUAUUUCUCUU (ssRNA) [Id_ii_S1_P3E.2_K3.1_C3.2_[C-2T]_H3.1_A3.1_F3.1_T3.2_[A10T]] | 6.67
UCUCUUAGUGUAUAUAGUUCUCUU (ssRNA) [Id_ii_S1_P3E.2_K3.1_C3.2_[C-2A]_[T-1G]_H3.1_A3.1_F3.1_T3.2_[T9G]_[A10T]] | 6.52
UCUCUUAAUGUAUAUACCUCUCUU (ssRNA) [Id_ii_S1_P3E.2_K3.1_C3.2_[C-2A]_[T-1A]_H3.1_A3.1_F3.1_T3.2_[T9C]_[A10C]] | 16.5
UCUCUUAGUGUAUAUAUCUCUCUU (ssRNA) [Id_ii_S1_P3E.2_K3.1_C3.2_[C-2A]_[T-1G]_H3.1_A3.1_F3.1_T3.2_[A10C]] | 13.4
UCUCUUAAUGUAUAUAAAUCUCUU (ssRNA) [Id_ii_S1_P3E.2_K3.1_C3.2_[C-2A]_[T-1A]_H3.1_A3.1_F3.1_T3.2_[T9A]] | 20.8
UCUCUUACUGUAUAUACCUCUCUU (ssRNA) [Id_ii_S1_P3E.2_K3.1_C3.2_[C-2A]_[T-1C]_H3.1_A3.1_F3.1_T3.2_[T9C]_[A10C]] | 11.9
UCUCUUACUGUAUAUAAAUCUCUU (ssRNA) [Id_ii_S1_P3E.2_K3.1_C3.2_[C-2A]_[T-1C]_H3.1_A3.1_F3.1_T3.2_[T9A]] | 16.3
UCUCUUCGUGUAUAUAUCUCUCUU (ssRNA) [Id_ii_S1_P3E.2_K3.1_C3.2_[T-1G]_H3.1_A3.1_F3.1_T3.2_[A10C]] | 7.58
UCUCUUUUUUUAUUAUCUCUU (ssRNA) [Ib_S1_P4E.1_K4.1_C4.1_H4.1_[G2T]_[A4T]_A4.1_F4.1_T4.1] | > 2300
UCUCUUCCUGUAUAUAACUCUCUU (ssRNA) [Id_ii_S1_P3E.2_K3.1_C3.2_[T-1C]_H3.1_A3.1_F3.1_T3.2_[T9A]_[A10C]] | 6.69
UCUCUUAGUGUAUAUAAUUCUCUU (ssRNA) [Id_ii_S1_P3E.2_K3.1_C3.2_[C-2A]_[T-1G]_H3.1_A3.1_F3.1_T3.2_[T9A]_[A10T]] | 10.1
UCUCUUACUGUAUAUACGUCUCUU (ssRNA) [Id_ii_S1_P3E.2_K3.1_C3.2_[C-2A]_[T-1C]_H3.1_A3.1_F3.1_T3.2_[T9C]_[A10G]] | 45.4
UCUCUUCCUGUAUAUACGUCUCUU (ssRNA) [Id_ii_S1_P3E.2_K3.1_C3.2_[T-1C]_H3.1_A3.1_F3.1_T3.2_[T9C]_[A10G]] | 17.4
UCUCUUAUUGUAUAUAUGUCUCUU (ssRNA) [Id_ii_S1_P3E.2_K3.1_C3.2_[C-2A]_H3.1_A3.1_F3.1_T3.2_[A10G]] | 12.3
UCUCUUUAUCUAUUAUCUCUU (ssRNA) [Ib_S1_P4E.1_K4.1_C4.1_H4.1_[G2A]_[A4C]_A4.1_F4.1_T4.1] | > 2300

Binder | Kd [nM]
UCUCUUAAUGUAUAUAUGUCUCUU (ssRNA) [Id_ii_S1_P3E.2_K3.1_C3.2_[C-2A]_[T-1A]_H3.1_A3.1_F3.1_T3.2_[A10G]] | 12.7
UCUCUUCCUGUAUAUACCUCUCUU (ssRNA) [Id_ii_S1_P3E.2_K3.1_C3.2_[T-1C]_H3.1_A3.1_F3.1_T3.2_[T9C]_[A10C]] | 24.3
UCUCUUAAUGUAUAUAUCUCUCUU (ssRNA) [Id_ii_S1_P3E.2_K3.1_C3.2_[C-2A]_[T-1A]_H3.1_A3.1_F3.1_T3.2_[A10C]] | 10.4
UCUCUUAAUGUAUAUAUUUCUCUU (ssRNA) [Id_ii_S1_P3E.2_K3.1_C3.2_[C-2A]_[T-1A]_H3.1_A3.1_F3.1_T3.2_[A10T]] | 13.4
UCUCUUAUUGUAUAUAAUUCUCUU (ssRNA) [Id_ii_S1_P3E.2_K3.1_C3.2_[C-2A]_H3.1_A3.1_F3.1_T3.2_[T9A]_[A10T]] | 12.2
UCUCUUUUUGUAUAUAUAUCUCUU (ssRNA) [Id_ii_S1_P3E.2_K3.1_C3.2_[C-2T]_H3.1_A3.1_F3.1_T3.2] | 4.57
UCUCUUAUUGUAUAUAUCUCUCUU (ssRNA) [Id_ii_S1_P3E.2_K3.1_C3.2_[C-2A]_H3.1_A3.1_F3.1_T3.2_[A10C]] | 8.52
UCUCUUACUGUAUAUAUCUCUCUU (ssRNA) [Id_ii_S1_P3E.2_K3.1_C3.2_[C-2A]_[T-1C]_H3.1_A3.1_F3.1_T3.2_[A10C]] | 9.47
UCUCUUCGUGUAUAUAAUUCUCUU (ssRNA) [Id_ii_S1_P3E.2_K3.1_C3.2_[T-1G]_H3.1_A3.1_F3.1_T3.2_[T9A]_[A10T]] | 8.53
UCUCUUCCUGUAUAUAUCUCUCUU (ssRNA) [Id_ii_S1_P3E.2_K3.1_C3.2_[T-1C]_H3.1_A3.1_F3.1_T3.2_[A10C]] | 4.74
UCUCUUCCUGUAUAUACAUCUCUU (ssRNA) [Id_ii_S1_P3E.2_K3.1_C3.2_[T-1C]_H3.1_A3.1_F3.1_T3.2_[T9C]] | 17.7
UCUCUUACUGUAUAUAACUCUCUU (ssRNA) [Id_ii_S1_P3E.2_K3.1_C3.2_[C-2A]_[T-1C]_H3.1_A3.1_F3.1_T3.2_[T9A]_[A10C]] | 26.7
UCUCUUCGUGUAUAUAUUUCUCUU (ssRNA) [Id_ii_S1_P3E.2_K3.1_C3.2_[T-1G]_H3.1_A3.1_F3.1_T3.2_[A10T]] | 8.56
UCUCUUACUGUAUAUAGCUCUCUU (ssRNA) [Id_ii_S1_P3E.2_K3.1_C3.2_[C-2A]_[T-1C]_H3.1_A3.1_F3.1_T3.2_[T9G]_[A10C]] | 9.36
UCUCUUAUUGUAUAUAGUUCUCUU (ssRNA) [Id_ii_S1_P3E.2_K3.1_C3.2_[C-2A]_H3.1_A3.1_F3.1_T3.2_[T9G]_[A10T]] | 6.25
UCUCUUAUUGUAUAUAACUCUCUU (ssRNA) [Id_ii_S1_P3E.2_K3.1_C3.2_[C-2A]_H3.1_A3.1_F3.1_T3.2_[T9A]_[A10C]] | 12.9
UCUCUUCCUGUAUAUAUAUCUCUU (ssRNA) [Id_ii_S1_P3E.2_K3.1_C3.2_[T-1C]_H3.1_A3.1_F3.1_T3.2] | 3.76
UCUCUUAUUGUAUAUAUUUCUCUU (ssRNA) [Id_ii_S1_P3E.2_K3.1_C3.2_[C-2A]_H3.1_A3.1_F3.1_T3.2_[A10T]] | 9.49
UCUCUUCCUGUAUAUAAGUCUCUU (ssRNA) [Id_ii_S1_P3E.2_K3.1_C3.2_[T-1C]_H3.1_A3.1_F3.1_T3.2_[T9A]_[A10G]] | 12.9
UCUCUUCGUGUAUAUAGUUCUCUU (ssRNA) [Id_ii_S1_P3E.2_K3.1_C3.2_[T-1G]_H3.1_A3.1_F3.1_T3.2_[T9G]_[A10T]] | 3.77
UCUCUUUUUGUAUUAUCUCUU (ssRNA) [Ib_S1_P4E.1_K4.1_C4.1_H4.1_[G2T]_[A4G]_A4.1_F4.1_T4.1] | 25.7

Binder | Kd [nM]
UCUCUUAUUGUAUAUACUUCUCUU (ssRNA) [Id_ii_S1_P3E.2_K3.1_C3.2_[C-2A]_H3.1_A3.1_F3.1_T3.2_[T9C]_[A10T]] | 10.3
UCUCUUAUUGUAUAUACCUCUCUU (ssRNA) [Id_ii_S1_P3E.2_K3.1_C3.2_[C-2A]_H3.1_A3.1_F3.1_T3.2_[T9C]_[A10C]] | 17.6
UCUCUUUGUAUCUUAUCUCUU (ssRNA) [Ic_S1_P4E.1_K4.1_C4.1_H4.1_A4.1_[A6C]_F4.1_T4.1] | 4.1
UCUCUUCCUGUAUAUAAUUCUCUU (ssRNA) [Id_ii_S1_P3E.2_K3.1_C3.2_[T-1C]_H3.1_A3.1_F3.1_T3.2_[T9A]_[A10T]] | 5.34
UCUCUUAGUGUAUAUAAAUCUCUU (ssRNA) [Id_ii_S1_P3E.2_K3.1_C3.2_[C-2A]_[T-1G]_H3.1_A3.1_F3.1_T3.2_[T9A]] | 14.1
UCUCUUCGUGUAUAUACCUCUCUU (ssRNA) [Id_ii_S1_P3E.2_K3.1_C3.2_[T-1G]_H3.1_A3.1_F3.1_T3.2_[T9C]_[A10C]] | 17.5
UCUCUUAAUGUAUAUAAUUCUCUU (ssRNA) [Id_ii_S1_P3E.2_K3.1_C3.2_[C-2A]_[T-1A]_H3.1_A3.1_F3.1_T3.2_[T9A]_[A10T]] | 8.64
UCUCUUAUUGUAUAUAGCUCUCUU (ssRNA) [Id_ii_S1_P3E.2_K3.1_C3.2_[C-2A]_H3.1_A3.1_F3.1_T3.2_[T9G]_[A10C]] | 12.1
UCUCUUCCUGUAUAUAGUUCUCUU (ssRNA) [Id_ii_S1_P3E.2_K3.1_C3.2_[T-1C]_H3.1_A3.1_F3.1_T3.2_[T9G]_[A10T]] | 4.07
UCUCUUUGCGUAUUAUCUCUU (ssRNA) [Ib_S1_P4E.1_K4.1_C4.1_H4.1_[T3C]_[A4G]_A4.1_F4.1_T4.1] | > 2300
UCUCUUAUUGUAUAUAUAUCUCUU (ssRNA) [Id_ii_S1_P3E.2_K3.1_C3.2_[C-2A]_H3.1_A3.1_F3.1_T3.2] | 4.87
UCUCUUACUGUAUAUAUUUCUCUU (ssRNA) [Id_ii_S1_P3E.2_K3.1_C3.2_[C-2A]_[T-1C]_H3.1_A3.1_F3.1_T3.2_[A10T]] | 10.8
UCUCUUAGUGUAUAUAUUUCUCUU (ssRNA) [Id_ii_S1_P3E.2_K3.1_C3.2_[C-2A]_[T-1G]_H3.1_A3.1_F3.1_T3.2_[A10T]] | 10
UCUCUUCGUGUAUAUAAAUCUCUU (ssRNA) [Id_ii_S1_P3E.2_K3.1_C3.2_[T-1G]_H3.1_A3.1_F3.1_T3.2_[T9A]] | 11.9
UCUCUUAGUGUAUAUAUGUCUCUU (ssRNA) [Id_ii_S1_P3E.2_K3.1_C3.2_[C-2A]_[T-1G]_H3.1_A3.1_F3.1_T3.2_[A10G]] | 11
UCUCUUCCUGUAUAUAUUUCUCUU (ssRNA) [Id_ii_S1_P3E.2_K3.1_C3.2_[T-1C]_H3.1_A3.1_F3.1_T3.2_[A10T]] | 5.94
UCUCUUACUGUAUAUAUGUCUCUU (ssRNA) [Id_ii_S1_P3E.2_K3.1_C3.2_[C-2A]_[T-1C]_H3.1_A3.1_F3.1_T3.2_[A10G]] | 17.2
UCUCUUAUUGUAUAUAAAUCUCUU (ssRNA) [Id_ii_S1_P3E.2_K3.1_C3.2_[C-2A]_H3.1_A3.1_F3.1_T3.2_[T9A]] | 13.9
UCUCUUACUGUAUAUACUUCUCUU (ssRNA) [Id_ii_S1_P3E.2_K3.1_C3.2_[C-2A]_[T-1C]_H3.1_A3.1_F3.1_T3.2_[T9C]_[A10T]] | 15
UCUCUUCCUGUAUAUAUGUCUCUU (ssRNA) [Id_ii_S1_P3E.2_K3.1_C3.2_[T-1C]_H3.1_A3.1_F3.1_T3.2_[A10G]] | 7.59
UCUCUUACUGUAUAUACAUCUCUU (ssRNA) [Id_ii_S1_P3E.2_K3.1_C3.2_[C-2A]_[T-1C]_H3.1_A3.1_F3.1_T3.2_[T9C]] | 22.8
